Columns and labels:
[1] = Tong et al, Pharm. Res. (2001) 18, 852-858; cited from earlier work
[2] = Integrity of insulin by GPC, HPLC, circular dichroism and fluorescence spectroscopy; format: physicochemical
Protocol: The formulations were also assessed for the integrity of insulin using gel permeation chromatography (GPC), high performance liquid chromatography (HPLC), circular dichroism and fluorescence spectroscopy.

Compound	aqueous solubility [1]	chemical degradation of insulin during the formulation process ([2]; GPC and HPLC chromatograms compared to standard insulin)	secondary structures of insulin after processing ([2]; far-UV circular dichroism, from the nanoparticles after delivery from the pMDI vs unprocessed control)	tertiary structures of insulin after processing ([2]; near-UV CD, peak around 275 nm, confirmed by fluorescence spectra)
OCc1cc(C(O)CNCCCCCCOCCCCc2ccccc2)ccc1O (stereo not shown) [SX, Salmeterol Xinafoate]	66 to 81 µg/mL	–	–	–
insulin	–	not chemically degraded	retained	retention
